“And” between values parts separate entries of the source, which are not always exact repeats. Identical values can stand only once. Like-named read-outs stand apart in the source and are kept apart here.
How the values were obtained:
[1] = molecular target: gH3–gH4 heterodimer (globular forms of histones H3 and H4) (Xenopus laevis) (UniProt P84233); assay: SEC
[2] = molecular target: H3–H4 complex with H3 labeled with Cy3 at Gln-125 (H3 C110A) (Xenopus laevis) (UniProt P84233); assay: fluorescence polarisation
[3] = molecular target: H3–H4 complex with H3 labeled with Cy3 at Gln-125 (H3 C110A) (Xenopus laevis) (UniProt P84233); assay: fluorescence polarisation; remark: listed apart in the source
[4] = molecular target: RbAp48–H3–H4 complex, labeled with Cy3 at Gln-125 on H3 (human | Xenopus laevis) (UniProt Q09028); assay: fluorescence polarisation
[5] = molecular target: H3–H4 complex with H3 labeled with Cy3 at Leu-65 (H3 C110A) (Xenopus laevis) (UniProt P84233); assay: fluorescence polarisation

Row | Substance | stoichiometry N (ASF1^1-159 : gH3–gH4) [1] | Kd [2] | Kd [3] | Kd [4] | Kd [5]
1 | human ASF1^1-159 (anti-silencing function protein 1, residues 1-159) (from UniProt Q9Y294 1-159) (domain or fragment) | 1 | 0.27 nM | 0.3 nM | 7.1 nM and 3 nM and 6.8 nM | 
2 | human retinoblastoma-associated protein RbAp48 (from UniProt Q09028 1-425) (natural protein) |  |  |  |  | 0.61 nM

Reference: article PMC3538076
